Assay [1] deals with Ld class I major histocompatibility complex molecule (30-5-7+ Ld) (mouse). The experiment in a line: co-IP.
The target is the same in assay [2]. Put plainly: co-IP. The source holds these as a separate data set.

Read-outs that look alike come from different tables or passages of the source.

Chain of Ld class I major histocompatibility complex molecule (30-5-7+ Ld) (mouse) (P01897 25-362, one chain of several): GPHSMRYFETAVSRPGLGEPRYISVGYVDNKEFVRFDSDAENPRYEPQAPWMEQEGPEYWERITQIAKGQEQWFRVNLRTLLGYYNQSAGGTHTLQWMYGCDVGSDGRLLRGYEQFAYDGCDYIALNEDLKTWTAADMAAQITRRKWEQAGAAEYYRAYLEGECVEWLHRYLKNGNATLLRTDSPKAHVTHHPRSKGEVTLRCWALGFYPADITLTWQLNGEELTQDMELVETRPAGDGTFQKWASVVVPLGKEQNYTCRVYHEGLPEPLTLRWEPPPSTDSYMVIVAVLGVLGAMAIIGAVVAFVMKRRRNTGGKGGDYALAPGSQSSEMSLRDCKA

As for MCMV pp89 168-176 peptide, the percent precipitable counts in assay [1] came out at 98%; in assay [2], 80%. In assay [2], this substance yielded a pellet cpm (bound peptide) of 7630 cpm.

These data come from publication PMC2118782.
